Results on 2 molecules are retold here after publication doi:10.1101/181321 (bioRxiv, 2017).

The target in assay [1] is C-terminal biotinylated histone H3 peptide (1 to 35 a.a.) (UniProt P68431). Description: SPR.
Assay [2] has as its target T1, C-terminal region of human Importin4 (C-Importin4, residues 668 to 1081) (human, UniProt Q8TEX9 668-1081).
T1 sequence: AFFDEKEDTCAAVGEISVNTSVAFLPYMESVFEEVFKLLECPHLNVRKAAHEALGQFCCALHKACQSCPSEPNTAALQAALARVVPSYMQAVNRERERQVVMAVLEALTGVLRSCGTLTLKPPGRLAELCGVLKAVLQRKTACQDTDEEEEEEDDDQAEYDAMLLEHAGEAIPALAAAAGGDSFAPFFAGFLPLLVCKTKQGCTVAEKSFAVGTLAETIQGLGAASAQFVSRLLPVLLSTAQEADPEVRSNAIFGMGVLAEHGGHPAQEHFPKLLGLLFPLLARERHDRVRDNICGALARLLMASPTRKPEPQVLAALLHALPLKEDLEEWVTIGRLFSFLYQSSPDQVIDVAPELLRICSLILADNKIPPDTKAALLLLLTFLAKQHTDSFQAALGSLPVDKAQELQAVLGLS
Description: SPR.

In the case of “C-terminal region of human Importin4 (C-Importin4, residues 668 to 1081) (from UniProt Q8TEX9 668-1081) (domain or fragment)”, the Kd in assay [1] was 1600 nM.

Consider ARTKQTARKSTGGKAPRK [histone H3 peptide (1-18 a.a.)], for which the binding result in assay [2] is listed as “binds”.
